What all share (format): binding
In assay [1] the target is human serum albumin (Homo sapiens, UniProt P02768). Nature of the assay: FFAu profile in artificial plasma (FFA mixed with fatty acid free human serum albumin). To be noted: artificial plasma: defined FFA mix with fatty acid free HSA in Measuring buffer.
Description: To determine if the low unbound POA levels were due to an interaction with some component of the blood sample matrix an artificial plasma was generated by mixing well defined amounts of the FFA used in Table 4 to fatty acid free human serum albumin in Measuring buffer.
The nature of assay [2]: Probe calibration by titration with FFA / FFA-BSA complexes: DHA. To be noted: equilibrium dissociation constant of probe for DHA. The protocol:
(§1) Calibration: Each probe is calibrated to the extent that the constants in Equation 2 are well determined for all FFAu to be included in profile calculations. Equation 2, which is the form of equation 1 for a single FFAu, relates the FFAu concentration to the equilibrium dissociation constant (Kd), fluorometric constants (Q and Rm) and the measured R values.
(§2) The calibration parameters are determined essentially as described in U.S. Pat. No. 7,601,510 which is incorporated herein by reference and (Huber et al Biochemistry (2006) 45:14263-14274) where the calibrated ADIFAB2 probe was used to generate FFA-BSA complexes with accurate and well buffered FFAu concentrations. To calibrate probes with substantially higher affinities than used in U.S. Pat. No. 7,601,510 and (Huber et al Biochemistry (2006) 45:14263-14274) a boot strap method is used in which a probe having higher affinities is calibrated with ADTFAB2. Such a probe is then used to generate FFA-BSA complexes with FFAu concentrations from 0.1 to 10 nM and these complexes are then used to calibrate other high affinity probes.
(§3) Probe calibration involves titrating the probes with either (i) un-buffered FFA or (ii) BSA-buffered FFA stocks. The un-buffered titrations involve measuring the R-value of a 1 μM probe solution as it is slowly titrated to saturation with small aliquots of a 100 to 250 μM FFA stock (Richieri G V et al. (1992) J Biol Chem 267: 23495-23501, Richieri G V et al. (1999) Mol Cell Biochem 192: 87-94). In this case, the total FFA concentration for each point in the titration is known and a nonlinear fit to the titration data yields the full set of fluorometric constants. In an un-buffered FFA titration, probe concentration is a key variable because the probe binds FFA, directly affecting the FFAu value.
(§4) Alternatively, in a BSA-buffered FFA calibration, the probe solution is titrated with a series of FFA-BSA complexes (600 μM BSA with [FFAu] ranging from 0.1 nM to 4 μM). The titration samples are FFA-BSA complex diluted 50-fold in Measuring Buffer. Probe is added to a concentration of 0.5 μM and the R-value is measured. Because BSA buffers FFAu, its concentration remains constant (i.e. known), even after the addition of probe. […] At least two calibrations with each of the up to 15 different FFA are performed for each probe.
(§5) All of the probes reveal substantial differences for different FFAu and in many cases these differences are related to the aqueous solubility of the FFA. For example, of the FFA in Table 3, SA is the least soluble and MA the most soluble. As discussed in (Richieri G V et al (2000) Biochemistry 39: 7197-7204) the tendency of natural proteins and FABPs, in particular, is for binding constants to be largest (smallest Kd) for the least soluble FFA and conversely for the most soluble FA. In two cases, ADIFAB2 and L11, Kd for SA is substantially the smallest and MA the largest and that pattern is more or less maintained for most of the other probes in Table3 with the exception of L83. In that case MA has the largest affinity while SA's more than 10 fold smaller. To some extent the other calibrations constants follow that behavior; Q is largest for the smallest Kd and Rmax is often largest, so that the probe response tends to be larger for FFA with the larger affinities. The ability to generate mutations that overcome the “natural thermodynamics” allows for probes that have a wide range of specificities and sensitivities than enable the determination of FFAu profiles.

Assay [3] in a line: Probe calibration by titration with FFA / FFA-BSA complexes: OA. To be noted: equilibrium dissociation constant of probe for OA. The protocol:
as §1, §2, §3, §4, §5

Assay [4] is described as follows: Probe calibration by titration with FFA / FFA-BSA complexes: MA. To be noted: equilibrium dissociation constant of probe for MA. The protocol: as §1, §2, §3, §4, §5
A short description of assay [5]: Probe calibration by titration with FFA / FFA-BSA complexes: POA. To be noted: equilibrium dissociation constant of probe for POA. The protocol: as §1, §2, §3, §4, §5
The nature of assay [6]: Probe calibration by titration with FFA / FFA-BSA complexes: LA. To be noted: equilibrium dissociation constant of probe for LA. Here is the method: as §1, §2, §3, §4, §5
The nature of assay [7]: Probe calibration by titration with FFA / FFA-BSA complexes: AA. To be noted: equilibrium dissociation constant of probe for AA. Here is the method: as §1, §2, §3, §4, §5
Assay [8] in a line: Probe calibration by titration with FFA / FFA-BSA complexes: SA. The protocol:
as §1, §2, §3, §4, §5

Assay [9] is described as follows: Probe calibration by titration with FFA / FFA-BSA complexes: LNA. To be noted: equilibrium dissociation constant of probe for LNA. Here is the method:
as §1, §2, §3, §4, §5

The nature of assay [10]: Probe calibration by titration with FFA / FFA-BSA complexes: PA. To be noted: equilibrium dissociation constant of probe for PA. The protocol:
as §1, §2, §3, §4, §5

Assay [11] in a line: Probe response (increase in R) to 1 nM SA. To be noted: 1 nM of SA, FIG. 1. An excerpt: The set of probes chosen to determine the profile of a sample depends upon the nature of the sample, the types of FFA expected to be present in the sample and the determination that the chosen probes respond to the expected FFA. In addition, especially for the least abundant FFAu in a sample, the probe's sensitivity for a given FFAu must be sufficient to accurately quantitate the low concentration FFAu, for example less than 50 pM. Sensitivity is a function of the Kd, Q, Ro and Rm parameters. Differences in sensitivity among different FFAu probes are apparent in FIG. 1 where for example for ADIFAB2 (acrylodan labeled at lysine 27), 1 nM of SA produces a 20% increase in R while for L11P7B3V26C the increases is almost 500%. […] In the absence of absolutely specific and sensitive probes the determination of FFAu profiles requires an over determined system, which empirically requires about twice the number of probes as FFAu to obtain accurate profiles. The identity of the set of probes to achieve accurate FFAu profiles is not unique. […]
The response profile is the fluorescence change as evaluated as (R−Ro)/Ro (ΔR/Ro) for each FFAu added as a complex of the FFA and albumin so that the FFAu concentration is clamped or buffered at 1 nM for every FFAu for which a calibration has been performed. […]

Substitutions are numbered along the chain they refer to. Names may count otherwise.

The source of these data is patent US10705101B2, “Determination of the unbound free fatty acid profiles in biological and industrial specimens” (priority 2013, dated 2020).

Sequence of human serum albumin (P02768 25-609): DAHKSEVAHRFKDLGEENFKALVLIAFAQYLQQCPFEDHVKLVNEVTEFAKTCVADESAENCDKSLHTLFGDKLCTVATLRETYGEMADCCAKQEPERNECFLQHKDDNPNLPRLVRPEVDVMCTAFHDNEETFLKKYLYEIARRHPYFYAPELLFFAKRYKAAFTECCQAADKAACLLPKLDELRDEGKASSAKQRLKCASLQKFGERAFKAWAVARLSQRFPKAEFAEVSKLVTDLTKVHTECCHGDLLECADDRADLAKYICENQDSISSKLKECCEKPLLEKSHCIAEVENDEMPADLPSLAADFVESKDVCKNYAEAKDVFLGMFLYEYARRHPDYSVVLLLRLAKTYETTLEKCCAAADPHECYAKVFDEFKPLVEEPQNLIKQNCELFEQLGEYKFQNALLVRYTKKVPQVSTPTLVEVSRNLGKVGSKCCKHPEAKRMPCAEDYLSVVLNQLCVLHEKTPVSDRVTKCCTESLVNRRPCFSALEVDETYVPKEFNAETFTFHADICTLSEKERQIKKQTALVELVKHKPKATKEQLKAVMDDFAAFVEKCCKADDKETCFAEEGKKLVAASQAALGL

For `CCCCCC/C=C\CCCCCCCC(=O)O` [POA, palmitoleate], in assay [1], the “% FFAu” value stood at 16.9%.

B1: ADIFAB2: acrylodan-labeled (lysine 27) mutant FABP probe: L72A (protein, UniProt P02693 2-132, looked up, variant L72A)
Fatty acid-binding protein, …: AFDGTWKVDRNENYEKFMEKMGINVVKRKLGAHDNLKLTITQEGNKFTVKESSNFRNIDVVFELGVDFAYSAADGTELTGTWTMEGNKLVGKFKRVDNGKELIAVREISGNELIQTYTYEGVEAKRIFKKE
modifications: acrylodan label on K27
notes: acrylodan-labeled (lysine 27) mutant FABP probe: L72A
Turning to B1, the Kd (as a rule, the concentration at which binding is half-saturated) was found to be 253 nM in assay [2]; 32 nM in assay [3]; 324 nM in assay [4]; 257 nM in assay [5]; 101 nM in assay [6]; 167 nM in [7]. Besides, the Kd was found to be 9.3 nM in assay [8] (equilibrium dissociation constant of probe for SA, read-out: Kd SA); 237 nM in [9]; 21.4 nM in assay [10]. For the same molecule, in assay [11], the “increase in R” value was determined as 20%.

B2: L11P7 B3 V26C: acrylodan-labeled mutant FABP probe: M21F, V26C, L72A, L78V, L102V (protein, UniProt P02693 2-132, looked up, variant M21F V26C L72A L78V L102V)
Fatty acid-binding protein, …: B1 Fatty acid-binding protein, … with M21F, V26C, L78V, L102V
modifications: acrylodan label
notes: acrylodan-labeled mutant FABP probe: M21F, V26C, L72A, L78V, L102V
For the molecule B2, the Kd in assay [2] turned out to be 7.5 nM; in assay [3], 1 nM; in assay [4] it was 18.8 nM; in assay [5], 11.1 nM; in [6], 3.9 nM; in [7] it was 6.1 nM. Besides, the Kd in assay [8] (read-out: Kd for SA) came out at 0.25 nM; in [9], 11.2 nM; in assay [10], 1.1 nM. Besides, the “increase in R” value in assay [11] was about 500%.
